Assay results published in doi:10.1101/070185 (bioRxiv, 2016).

T1: ETS1Δ335 L337A (UniProt P14921 335-441, L337A)
T1 sequence: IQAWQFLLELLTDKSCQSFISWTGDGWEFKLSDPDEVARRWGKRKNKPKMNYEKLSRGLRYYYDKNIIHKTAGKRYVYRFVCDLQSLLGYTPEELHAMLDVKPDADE

T2: ETS1Δ335 (UniProt P14921 335-441)
T2 sequence: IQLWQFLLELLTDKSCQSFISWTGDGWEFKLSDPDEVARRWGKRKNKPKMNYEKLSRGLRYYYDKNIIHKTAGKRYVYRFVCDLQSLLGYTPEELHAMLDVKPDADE

T3: ETS1Δ335 R394A/Y395A (UniProt P14921 335-441, R394A;Y395A)
T3 sequence: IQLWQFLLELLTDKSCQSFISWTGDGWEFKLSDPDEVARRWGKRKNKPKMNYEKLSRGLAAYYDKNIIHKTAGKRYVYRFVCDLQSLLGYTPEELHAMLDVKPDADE

B1: ETS1Δ335 R378C (domain or fragment, UniProt P14921 335-441, looked up)
chain: IQLWQFLLELLTDKSCQSFISWTGDGWEFKLSDPDEVARRWGKCKNKPKMNYEKLSRGLRYYYDKNIIHKTAGKRYVYRFVCDLQSLLGYTPEELHAMLDVKPDADE
B2: ETS1Δ335 R378C/R394A/Y395A (domain or fragment, UniProt P14921 335-441, looked up)
chain: IQLWQFLLELLTDKSCQSFISWTGDGWEFKLSDPDEVARRWGKCKNKPKMNYEKLSRGLAAYYDKNIIHKTAGKRYVYRFVCDLQSLLGYTPEELHAMLDVKPDADE
B3: ETS1Δ335 L337A R378C (domain or fragment, UniProt P14921 335-441, looked up)
chain: IQAWQFLLELLTDKSCQSFISWTGDGWEFKLSDPDEVARRWGKCKNKPKMNYEKLSRGLRYYYDKNIIHKTAGKRYVYRFVCDLQSLLGYTPEELHAMLDVKPDADE
B4: MMP3 WT (dsDNA)
DNA 1: ACAGGAAGCACTTCCTGG
DNA 2: CCAGGAAGTGCTTCCTGT
B5: MMP3 M2 (dsDNA)
DNA 1: ACAGGAAGCACTTTTTGG
DNA 2: CCAAAAAGTGCTTCCTGT
B6: p53 (dsDNA)
DNA 1: TTAGGAAGGCTTTCCGTA
DNA 2: TACGGAAAGCCTTCCTAA
B7: MMP3 M1 (dsDNA)
DNA 1: ACAAAAAGCACTTCCTGG
DNA 2: CCAGGAAGTGCTTTTTGT

What was measured:
cross-linking = target: the molecule itself; assay: cross-linking
ETS1Δ335 L337A = target: T1, ETS1Δ335 L337A; assay: EMSA
ETS1Δ335 = target: T2, ETS1Δ335; assay: EMSA
ETS1Δ335 R394A/Y395A = target: T3, ETS1Δ335 R394A/Y395A; assay: EMSA

Row | Binder | stoichiometry N (cross-linking) | Kd (ETS1Δ335) [nM] | Kd (ETS1Δ335 R394A/Y395A) [nM] | further results
1 | B1 | 2 |  |  | 
2 | B2 | 2 |  |  | 
3 | B3 | 2 |  |  | 
4 | B4 |  | 1.2 ± 0.2 | 16.1 ± 1.3 | binding result (ETS1Δ335 L337A): no binding
5 | B5 |  | 6.37 ± 0.92 | 7.33 ± 0.55 | 
6 | B6 |  |  |  | binding result (ETS1Δ335): no binding; binding result (ETS1Δ335 R394A/Y395A): no binding
7 | B7 |  | 13.5 ± 1.9 | 105 ± 5.2 | 
